Biological target: Adnectin C-PAS#1(200)
Assay: SPR; Biacore X100, 25 °C, HBS-EP buffer pH 7.4, CM5 chip; His-tagged Adnectins captured on amine-coupled anti-His antibody (about 300 RU); rhVEGFR2 injected at 50-3.125 ug/ml; multi cycle kinetics, contact 180 s, dissociation 500 s

Question: Which results are given for “rhVEGFR2 (Genescript) (from UniProt P35968 20-764) (receptor)”?
Answer: Kd: 0.159 nM; koff: 2.48e-05 s⁻¹; kon: 156000 M⁻¹ s⁻¹
